Test results: patent US6926883B1, “Group (VII) transition-metal complexes with multidentate aminopolycarboxylate ligands and a kit for producing them” (Mallinckrodt Inc, priority 1999, dated 2005)

Columns and labels:
[1] = in vivo; parameters: species or system Lewis rats; settings: male, Lewis, rat, iv, 50 uCi, total radioactivity
Procedure: (§1) These studies were performed to evaluate the biodistribution and imaging potential of these compounds in Lewis rats bearing CA20948 rat pancreatic tumor implants. For each study, six (6) male Lewis rats bearing CA20948 tumor implants were anesthetized with Metofane gas and injected via the jugular vein with 200 μL (using the compounds of Example 2) or 50 μL (using the compound of Example 3) of test article containing ˜50 μCi of activity. The animals were imaged for 100K counts under a gamma camera at 30 minute (n=3) and 4 hours (n=3) post injection after which time they were sacrificed and the following tissues removed for assay: blood, liver, kidneys, muscle, spleen, pancreas, small intestines, adrenals and tumor. The data are presented as % injected dose per gram and % injected dose per whole organ. The comparative data are also represented graphically.

[2] = test system: CA20948 rat pancreatic tumor implants; assay: in vivo; parameters: species or system Lewis rats
Procedure: as §1

[3] = molecular target: T1, SST-2 Receptors (Rattus norvegicus, UniProt P30680); assay: in vivo; format: in vivo, Lewis rats; settings: 350 μg cold Y3-Octreotate 30 minutes prior; three hours post injection
T1 construct: from tissue; host or cells: Lewis rats bearing CA20948 tumor implants
Procedure: (§2) Two rats for each group were used. Group 1 received 500 μL PBS administered subcutaneously in the nape of the neck 30 minutes prior to the injection of [^99mTc(CO)3(DTPA′-Y^3-Octreotate)]. Group 2 received 350 μg Y^3-Octreotate in 500 μL phosphate buffered saline (PBS) administered subcutaneously in the nape of the neck 30 minutes prior to the injection of [^99mTc(CO)3(DTPA′-Y^3-Octreotate)].
(§3) 30 minutes after injection of the cold peptide or saline control, the animals were anesthetized with Metofane gas and injected with 50 μL (50 μCi) of [^99mTc(CO)3(DTPA′-Y^3-Octreotate)]. At three hours post injection the animals were sacrificed, blood samples taken, and then the rats were scintigraphed for 100K counts (FIG. 3). At the conclusion of the scintigraphy, the animals were necropsied, and the following tissues removed for radioassay: liver, kidneys, muscle, spleen, heart, pancreas, adrenals, and tumor. The data were calculated as % injected dose per gram and % injected dose per whole organ.

[4] = in vivo; format: in vivo, Lewis rats; settings: Lewis, rat, in vivo, total radioactivity
Procedure: as §2, §3

[5] = parameters: species or system Lewis rats; settings: rat, in vivo
Procedure: During the general biodistribution studies, one additional animal per study was ligated to prevent urination prior to injection. The animal was kept anesthetized for 3 hours post injection, and was subsequently sacrificed, urine removed. The volume and activity of the urine was measured, and a sample was analyzed by HPLC using the method described above.

T1 sequence (P30680 whole entry): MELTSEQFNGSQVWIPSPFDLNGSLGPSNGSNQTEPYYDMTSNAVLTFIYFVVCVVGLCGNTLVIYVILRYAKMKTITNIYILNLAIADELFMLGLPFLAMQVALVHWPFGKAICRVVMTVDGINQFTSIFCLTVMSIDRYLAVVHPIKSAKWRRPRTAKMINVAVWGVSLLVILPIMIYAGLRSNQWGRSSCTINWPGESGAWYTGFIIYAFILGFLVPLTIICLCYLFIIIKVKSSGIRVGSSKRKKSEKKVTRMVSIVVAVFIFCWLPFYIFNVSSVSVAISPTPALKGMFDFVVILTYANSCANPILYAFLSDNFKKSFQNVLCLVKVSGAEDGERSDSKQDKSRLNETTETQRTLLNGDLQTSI

## C[C@@H](O)[C@H](NC(=O)[C@@H]1CSSC[C@H](NC(=O)[C@@H](Cc2ccccc2)NC(=O)CN(CCN(CCN(CC(=O)O)CC(=O)O)CC(=O)O)CC(=O)O)C(=O)N[C@@H](Cc2ccc(O)cc2)C(=O)N[C@H](Cc2c[nH]c3ccccc23)C(=O)N[C@@H](CCCCN)C(=O)N[C@@H]([C@@H](C)O)C(=O)N1)C(=O)O [MP-2138, Tc-99m(CO)3-n-DTPA-Tyr-3-Octreotate, metal not drawn]
[1]; Blood % ID/g
  tissue uptake at 0.5 h: 0.735 ± 0.027 %ID/g
  tissue uptake at 4 h: 0.218 ± 0.01 %ID/g
[1]; Kidney % ID/g
  tissue uptake at 0.5 h: 5.282 ± 0.014 %ID/g
  tissue uptake at 4 h: 5.703 ± 0.052 %ID/g
[1]; Liver % ID/g
  tissue uptake at 0.5 h: 0.567 ± 0.015 %ID/g
  tissue uptake at 4 h: 0.516 ± 0.034 %ID/g
[1]; Pancreas % ID/g
  tissue uptake at 0.5 h: 1.56 ± 0.11 %ID/g
  tissue uptake at 4 h: 1.76 ± 0.089 %ID/g
[1]; Tumor % ID/g
  tissue uptake at 0.5 h: 0.847 ± 0.078 %ID/g
  tissue uptake at 4 h: 0.822 ± 0.13 %ID/g
[1]; Tumor/Blood
  tissue to tissue ratio at 0.5 h: 1.1
  tissue to tissue ratio at 4 h: 3.7
[1]; Tumor/Kidney
  tissue to tissue ratio at 0.5 h: 0.14
  tissue to tissue ratio at 4 h: 0.14
[1]; Tumor/Liver
  tissue to tissue ratio at 0.5 h: 1.3
  tissue to tissue ratio at 4 h: 1.6

## C[C@@H](O)[C@H](NC(=O)[C@@H]1CSSC[C@H](NC(=O)[C@@H](Cc2ccccc2)NC(=O)CC(C(=O)O)N(CCN(CC(=O)O)CC(=O)O)CCN(CC(=O)O)CC(=O)O)C(=O)N[C@@H](Cc2ccc(O)cc2)C(=O)N[C@H](Cc2c[nH]c3ccccc23)C(=O)N[C@@H](CCCCN)C(=O)N[C@@H]([C@@H](C)O)C(=O)N1)C(=O)O (stereo partly drawn) [MP-2148, Tc-99m(CO)3-DTPA′-Tyr-3-Octreotate, metal not drawn]
[2]
  Amount of activity in the liver and GI tract compared to [99mTc(CO)3(His-Y3-Octreotate)]: significantly less
  Biodistribution characteristics vs iso-DTPA-Y3-Octreotate and n-DTPA-Y3-Octreotate: better biodistribution characteristics
  Hepatobiliary uptake and clearance compared to [99mTc(CO)3(His-Y3-Octreotate)]: less hepatobiliary uptake and clearance
[1]; Blood % ID/g
  tissue uptake at 0.5 h: 0.471 ± 0.035 %ID/g
  tissue uptake at 4 h: 0.114 ± 0.005 %ID/g
[1]; Blood (% ID/g at 4 hours p.i.)
  tissue uptake at 4 h: 0.083 %ID/g
[1]; Kidney % ID/g
  tissue uptake at 0.5 h: 2.14 ± 0.12 %ID/g
  tissue uptake at 4 h: 3.14 ± 0.08 %ID/g
[1]; Kidney (% ID/g at 4 hours p.i.)
  tissue uptake at 4 h: 3.27 %ID/g
[1]; Liver % ID/g
  tissue uptake at 0.5 h: 0.494 ± 0.011 %ID/g
  tissue uptake at 4 h: 0.363 ± 0.022 %ID/g
[1]; Liver (% ID/g at 4 hours p.i.)
  tissue uptake at 4 h: 0.19 %ID/g
[1]; Pancreas % ID/g
  tissue uptake at 0.5 h: 1.15 ± 0.032 %ID/g
  tissue uptake at 4 h: 0.956 ± 0.054 %ID/g
[1]; Pancreas (% ID/g at 4 hours p.i.)
  tissue uptake at 4 h: 0.99 %ID/g
[1]; Tumor % ID/g
  tissue uptake at 0.5 h: 0.793 ± 0.041 %ID/g
  tissue uptake at 4 h: 0.769 ± 0.069 %ID/g
[1]; Tumor (% ID/g at 4 hours p.i.)
  tissue uptake at 4 h: 1.06 %ID/g
[1]; Tumor/Blood
  tissue to tissue ratio at 0.5 h: 1.7
  tissue to tissue ratio at 4 h: 6.7
[1]; Tumor/Kidney
  tissue to tissue ratio at 0.5 h: 0.37
  tissue to tissue ratio at 4 h: 0.25
[1]; Tumor/Liver
  tissue to tissue ratio at 0.5 h: 1.6
  tissue to tissue ratio at 4 h: 2.1
[3]
  Reduction of uptake in the adrenals in somatostatin receptor-blocked animals: 81%
  Reduction of uptake in the pancreas in somatostatin receptor-blocked animals: 95%
  Reduction of uptake in the tumor in somatostatin receptor-blocked animals: 90%
[4]; 50 uCi, Adrenals % ID/organ
  tissue uptake dose at 3 h: 0.042 %ID
[4]; 50 uCi, Blood % ID/g
  tissue uptake at 3 h: 0.115 %ID/g
[4]; 50 uCi, Blood % ID/organ
  tissue uptake dose at 3 h: 1.44 %ID
[4]; 50 uCi, Heart % ID/g
  tissue uptake at 3 h: 0.062 %ID/g
[4]; 50 uCi, Heart % ID/organ
  tissue uptake dose at 3 h: 0.049 %ID
[4]; 50 uCi, Kidneys % ID/g
  tissue uptake at 3 h: 2.98 %ID/g
[4]; 50 uCi, Kidneys % ID/organ
  tissue uptake dose at 3 h: 6.82 %ID
[4]; 50 uCi, Liver % ID/g
  tissue uptake at 3 h: 0.236 %ID/g
[4]; 50 uCi, Liver % ID/organ
  tissue uptake dose at 3 h: 2.35 %ID
[4]; 50 uCi, Muscle % ID/g
  tissue uptake at 3 h: 0.058 %ID/g
[4]; 50 uCi, Muscle % ID/organ
  tissue uptake dose at 3 h: 6.6 %ID
[4]; 50 uCi, Pancreas % ID/g
  tissue uptake at 3 h: 0.916 %ID/g
[4]; 50 uCi, Pancreas % ID/organ
  tissue uptake dose at 3 h: 0.762 %ID
[4]; 50 uCi, Spleen % ID/g
  tissue uptake at 3 h: 0.081 %ID/g
[4]; 50 uCi, Spleen % ID/organ
  tissue uptake dose at 3 h: 0.044 %ID
[4]; 50 uCi, Tumor % ID/g
  tissue uptake at 3 h: 1.11 %ID/g
[4]; 50 uCi, Tumor % ID/organ
  tissue uptake dose at 3 h: 5.18 %ID
[4]; Adrenals % ID/organ
  tissue uptake dose at 3 h: 0.008 %ID
[4]; Blood % ID/organ
  tissue uptake dose at 3 h: 1.59 %ID
[4]; Heart % ID/organ
  tissue uptake dose at 3 h: 0.057 %ID
[4]; Kidneys % ID/organ
  tissue uptake dose at 3 h: 6.24 %ID
[4]; Liver % ID/organ
  tissue uptake dose at 3 h: 2.61 %ID
[4]; Muscle % ID/organ
  tissue uptake dose at 3 h: 6.93 %ID
[4]; Pancreas % ID/organ
  tissue uptake dose at 3 h: 0.052 %ID
[4]; Spleen % ID/organ
  tissue uptake dose at 3 h: 0.042 %ID
[4]; Tumor % ID/organ
  tissue uptake dose at 3 h: 0.493 %ID
[5]
  Activity of Urine: 10.4 μCi
  Metabolism: state of compound in urine by HPLC analysis: essentially intact
  Volume of Urine: 1.5 mL

## Tc-99m(CO)3-His-Tyr-3-Octreotate [MP-2377, reference compound]
[2]
  Blood (% ID/g at 4 hours p.i.): 0.03 % ID/g
  Kidney (% ID/g at 4 hours p.i.): 1.64 % ID/g
  Liver (% ID/g at 4 hours p.i.): 0.28 % ID/g
  Pancreas (% ID/g at 4 hours p.i.): 2.67 % ID/g
  Tumor (% ID/g at 4 hours p.i.): 1.00 % ID/g
[5]
  Activity of Urine: 5.8 μCi
  Metabolism: state of compound in urine by HPLC analysis: essentially intact
  Volume of Urine: 1.5 mL

## Tc-99m(CO)3-iso-DTPA-Tyr-3-Octreotate [MP-2423]
[2]
  Tumor/Liver: 3
